Consider six molecules from patent US20220267441A1 (VOR BIOPHARMA, published 2022).

The chains are these.
B1: Antibody 4 (Ab4) (antibody, V domains shown)
VH: EVQLVESGGGLVQPGGSLRLSCAASGFTFEAYSMNWVRQAPGKGLEWVSYISLSGATIHYADSVKGRFTISRDNAKNSLYLQMNSLRAEDTAVYYCARGGQYYYTSSDYGEVAFDIWGQGTMVTVSS
VL: DIVMTQSPLSLPVTPGEPASISCRSSQSLVSNGYNYLDWYLQKPGQSPQLLIYFGSSRASGVPDRFSGSGSGTDFTLKISRVEAEDVGVYYCMQRRRTPWSFGGGTKVEIK
B2: Antibody 3 (Ab3) (antibody, V domains shown)
VH: QVQLVESGGGLVKPGGSLRLSCAASGFTFGGYSMNWVRQAPGKGLEWVSYISISGATITYADSVKGRFTISRDNAKNSLYLQMNSLRAEDTAVYYCARGGQYYYDSSDYGEVAFDIWGQGTMVTVSS
VL: DIVMTQSPLSLPVTPGEPASISCRSSQSLVSNGYNYLDWYLQKPGQSPQLLIYFGSSRASGVPDRFSGSGSGTDFTLKISRVEAEDVGVYYCMQRRRTPPFTFGGGTKVEIK
B3: Antibody 7 (Ab7) (antibody, V domains shown)
VH: QVQLVESGGGLVKPGGSLRLSCAASGFTFGGYSMNWVRQAPGKGLEWVSYISISGATITYADSVKGRFTISRDNAKNSLYLQMNSLRAEDTAVYYCARGGQYYYDSSDYGEVAFDIWGQGTMVTVSS
VL: DIVMTQSPLSLPVTPGEPASISCRSSQSLVSSGYNYLDWYLQKPGQSPQLLIYFGSSRASGVPDRFSGSGSGTDFTLKISRVEAEDVGVYYCMQRRRTPPFTFGGGTKVEIK
notes: Human IgG: Ab3 with the Asn to Ser substitution in CDR-L1
B4: Antibody 6 (Ab6) (antibody, V domains shown)
VH: EVQLVESGGGLVQPGGSLRLSCAASGFTFEAYSMNWVRQAPGKGLEWVSYISLSGATIHYADSVKGRFTISRDNAKNSLYLQMNSLRAEDTAVYYCARGGQYYYTSSDYGEVAFDIWGQGTLVTVSS
VL: DIVLTQSPLSLPVTPGEPASISCRSSQSLVSSGYNYLDWYLQKPGQSPQLLIYFGSSRASGVPDRFSGSGSGTDFTLKISRVEAEDVGVYYCMQRRRTPWSFGGGTKVEIK
B5: Antibody 2 (Ab2) (antibody, V domains shown)
VH: EVQLVESGGGLVQPGGSLRLSCAASGFTFEAYSMNWVRQAPGKGLEWVSYISLSGATIHYADSVKGRFTISRDNAKNSLYLQMNSLRAEDTAVYYCARGGQYYYDSSDYGEVAFDIWGQGTMVTVSS
VL: DIVMTQSPLSLPVTPGEPASISCRSSQSLVSNGYNYLDWYLQKPGQSPQLLIYFGSSRASGVPDRFSGSGSGTDFTLKISRVEAEDVGVYYCMQRRRTPWSFGGGTKVEIK
B6: Antibody 5 (Ab5) (antibody, V domains shown)
VH: EVQLVESGGGLVQPGGSLRLSCAASGFTFEAYSMNWVRQAPGKGLEWVSYISLSGATIHYADSVKGRFTISRDNAKNSLYLQMNSLRAEDTAVYYCARGGQYYYTSSDYGEVAFDIWGQGTMVTVSS
VL: DIVMTQSPLSLPVTPGEPASISCRSSQSLVSSGYNYLDWYLQKPGQSPQLLIYFGSSRASGVPDRFSGSGSGTDFTLKISRVEAEDVGVYYCMQRRRTPWSFGGGTKVEIK
notes: Human IgG: Ab4 with the Asn to Ser substitution in CDR-L1

The assay concerns the target T1, purified human CD45 ectodomain (human CD45RABC antigen) (human, UniProt P08575 26-577).
T1 construct: also called hCD45
T1 sequence: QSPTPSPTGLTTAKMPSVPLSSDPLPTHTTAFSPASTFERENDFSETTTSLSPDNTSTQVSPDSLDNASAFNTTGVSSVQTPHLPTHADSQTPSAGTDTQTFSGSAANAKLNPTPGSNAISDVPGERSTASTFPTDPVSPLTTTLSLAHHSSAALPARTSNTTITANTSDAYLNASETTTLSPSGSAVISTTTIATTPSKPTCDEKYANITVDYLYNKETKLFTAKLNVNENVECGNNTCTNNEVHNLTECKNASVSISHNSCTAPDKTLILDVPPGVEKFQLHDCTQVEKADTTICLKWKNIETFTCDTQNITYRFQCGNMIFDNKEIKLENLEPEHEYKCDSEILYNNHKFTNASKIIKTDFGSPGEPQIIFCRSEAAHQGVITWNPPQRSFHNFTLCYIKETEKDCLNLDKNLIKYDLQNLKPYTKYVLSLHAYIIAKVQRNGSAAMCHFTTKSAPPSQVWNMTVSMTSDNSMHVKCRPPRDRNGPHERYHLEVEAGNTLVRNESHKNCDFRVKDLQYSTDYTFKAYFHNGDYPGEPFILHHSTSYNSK
Put plainly: BLI (Octet Red96), IgG on anti-human Fc sensor, 50 nM CD45 ectodomain, 1:1 fit.
Consider B1, for which binding was characterised by a dissociation constant (Kd) of 0.0139 nM; the koff – broadly, the rate constant with which the complex falls apart – was 3.28e-06 s⁻¹; the kon – broadly, a measure of how fast the partners come together – was found to be 236000 M⁻¹ s⁻¹.
In the same order, the values of B2 are 0.866 nM, 0.000225 s⁻¹ and 260000 M⁻¹ s⁻¹.
On to B3, for which the Kd (commonly the free concentration of one partner at which half of the binding sites on the other are occupied at equilibrium, for simple one-to-one binding) was determined as 2.33 nM; the koff came out at 0.000615 s⁻¹; the kon is 264000 M⁻¹ s⁻¹.
In the same order, the values of B4 are 0.0716 nM, 1.73e-05 s⁻¹ and 242000 M⁻¹ s⁻¹.
As for B5, the Kd amounted to 0.115 nM, the koff was found to be 2.8e-05 s⁻¹ and the kon stood at 245000 M⁻¹ s⁻¹.
B6: the Kd worked out at 0.144 nM, the koff came to 3.36e-05 s⁻¹ and the kon was 233000 M⁻¹ s⁻¹.
